Patent publication US20190000971A1 (RESEARCH INSTITUTE AT NATIONWIDE CHILDREN S HOSPITAL, published 2019)

Columns and labels:
[1] = target: T1, Haemophilus influenzae IhfB, modified B4 (mB4) fragment (Haemophilus influenzae); experiment: ELISA (FIG. 2B)
T1 construct: Synthetic 20-mer peptide; also called IhfB frag. mB4
T1 peptide: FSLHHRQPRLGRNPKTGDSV

[2] = target: T2, Haemophilus influenzae IhfA, A5 fragment (Haemophilus influenzae); experiment: ELISA, peptide-coated plate (FIG. 2B/2C)
T2 construct: Synthetic 20-mer peptide; also called IhfA frag; A5
T2 peptide: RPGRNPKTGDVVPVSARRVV

B1: monoclonal antibody mIhfB4 NTHI (hybridoma mIhfB4 NTHI 12E6.F8.D12.D5, ATCC PTA-122335) (antibody, V domains shown)
VH: EVQLQESGAELVRSGASVKLSCTASGFNIKDYYMHWVKQRPEQGLEWIGWIDPENDDTEYVPKFQGKASMTADTSSNTAYLQLSSLTSEDTAVYYCTELGAYWGQGTLV
VL: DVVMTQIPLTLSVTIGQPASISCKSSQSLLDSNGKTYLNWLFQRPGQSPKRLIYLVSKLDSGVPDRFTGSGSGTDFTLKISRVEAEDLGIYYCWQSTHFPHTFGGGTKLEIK
notes: 17; also called Ihf mB4; mB4
binding result [1]: binds

B2: monoclonal antibody IhfA5 NTHI (hybridoma IhfA5 NTHI 14G8.F5.G6, ATCC PTA-122334) (antibody, V domains shown)
VH: EVQLQESGPGLVTPSQSLSMTCTVSGFSLTSYSVHWVRQPPGKSLEWLGVIWAGGSTNYNSALMSRLSISKDNSKSQVFLKMDSLQTDDTAIYYCAREDSWGQGTSVTVSS
VL: DIVMTQSQKFMSTSVGDRVSVTCKASQNVGTNVAWYQQKPGQSPKALIYSASYRYSGVPDRFTGSGSGTDFTLTISNVQSEDLAEYFCQQYNSYPTFGGGTKLEIK
notes: 13; also called mAb IhfA5NTHI
binding result [2]: binds
